Reference: US20220411504A1 (Janssen / Centocor, published 2022)

Key:
[1] = biological target: recombinant HLA-G (human); assay: ELISA after 10 min heat treatment of the scFv supernatant
[2] = biological target: recombinant HLA-G (human); assay: ELISA, scFv in E. coli supernatant on recombinant HLA-G
[3] = biological target: T1, Human CD3 epsilon (CD3ε) of the T cell receptor complex on cells (human, UniProt P07766 23-207); assay: T cell binding (method not described)
T1 construct: On Jurkat cells and primary human (pan) T cells; also called T-cell surface glycoprotein CD3 epsilon chain; T3E

[4] = biological target: T2, HLA-G on cells (K562-HLA-G and HLA-G expressing tumor cells) (human); assay: cell-based or functional assay
[5] = biological target: T2, HLA-G on cells (K562-HLA-G and HLA-G …); assay: K562-HLA-G cell binding (method not described)
[6] = biological target: T1, Human CD3 epsilon (CD3ε) of the T cell …; assay: flow cytometry on human pan T cells
[7] = biological target: T3, recombinant human DLL3 (human, UniProt Q9NYJ7 27-492); assay: SPR (Biacore T200), antibody captured by goat anti-Fc, DLL3 titrated
T3 construct: also called DLL3 antigen; Delta-like protein 3
T3 sequence: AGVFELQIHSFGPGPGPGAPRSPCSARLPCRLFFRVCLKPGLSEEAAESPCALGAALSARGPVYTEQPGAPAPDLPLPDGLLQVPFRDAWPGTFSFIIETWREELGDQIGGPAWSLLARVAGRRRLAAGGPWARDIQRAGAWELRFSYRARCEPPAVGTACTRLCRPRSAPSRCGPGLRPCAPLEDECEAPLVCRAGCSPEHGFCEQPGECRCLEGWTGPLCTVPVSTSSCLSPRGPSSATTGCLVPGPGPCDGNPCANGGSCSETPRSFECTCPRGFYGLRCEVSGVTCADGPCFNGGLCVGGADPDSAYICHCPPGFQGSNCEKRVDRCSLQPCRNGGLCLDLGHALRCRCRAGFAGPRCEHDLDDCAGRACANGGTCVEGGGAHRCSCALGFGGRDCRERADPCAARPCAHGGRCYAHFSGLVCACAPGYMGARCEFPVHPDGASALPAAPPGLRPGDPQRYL

T1 sequence (P07766 23-207 limits assumed, one chain of several): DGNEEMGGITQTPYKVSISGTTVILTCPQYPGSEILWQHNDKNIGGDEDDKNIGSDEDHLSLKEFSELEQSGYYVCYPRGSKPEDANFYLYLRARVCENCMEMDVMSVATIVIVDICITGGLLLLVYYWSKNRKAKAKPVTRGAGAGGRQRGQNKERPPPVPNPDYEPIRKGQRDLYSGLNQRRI

| Binder | % Binding retained 55° C. [1] [%] | % Binding retained 60° C. [1] [%] | % Binding retained 65° C. [1] [%] | Room temperature binding signal [2] | EC50 [3] [nM] | EC50 [5] [nM] | binding result [6] | Kd [7] [nM] | Cytotoxicity, EC50 (T cell-mediated, NCI-H2009-b2m target cells, 72 hr) [4] [nM] |
| --- | --- | --- | --- | --- | --- | --- | --- | --- | --- |
| MHGB694 v-region as scFv (E. coli supernatant) (scFv, V domains shown, One scFv chain) VH: EVQLLESGGGLVQPGGSLRLSCAASGFTFSSYAMHWVRQAPGKGLDWVSGISGSGFSTYYVDSVKGRFTISRDNSKHTLYLQMNSLRAEDTAVYYCAKDNLVAGTVFDYWGQGTLVTVSS VL: not shown | 85 | 9 | 4 | 3.07e+06 |  |  |  |  |  |
| HC3B125 (bispecific antibody, human IgG1, lambda, L234A L235A, No codon for C-terminal K447; also called CD3B376-Fab-Fc x MHGB732-LH-scFv-Fc; HCB125) heavy: QVQLQQSGPRLVRPSQTLSLTCAISGDSVFNNNAAWSWIRQSPSRGLEWLGRTYYRSKWLYDYAVSVKSRITVNPDTSRNQFTLQLNSVTPEDTALYYCARGYSSSFDYWGQGTLVTVSSASTKGPSVFPLAPSSKSTSGGTAALGCLVKDYFPEPVTVSWNSGALTSGVHTFPAVLQSSGLYSLSSVVTVPSSSLGTQTYICNVNHKPSNTKVDKKVEPKSCDKTHTCPPCPAPEAAGGPSVFLFPPKPKDTLMISRTPEVTCVVVSVSHEDPEVKFNWYVDGVEVHNAKTKPREEQYNSTYRVVSVLTVLHQDWLNGKEYKCKVSNKALPAPIEKTISKAKGQPREPQVYVYPPSREEMTKNQVSLTCLVKGFYPSDIAVEWESNGQPENNYKTTPPVLDSDGSFALVSKLTVDKSRWQQGNVFSCSVMHEALHNHYTQKSLSLSPG light: QSALTQPASVSGSPGQSITISCTGTSSNIGTYKFVSWYQQHPDKAPKVLLYEVSKRPSGVSSRFSGSKSGNTASLTISGLQAEDQADYHCVSYAGSGTLLFGGGTKLTVLGQPKAAPSVTLFPPSSEELQANKATLVCLISDFYPGAVTVAWKADSSPVKAGVETTTPSKQSNNKYAASSYLSLTPEQWKSHRSYSCQVTHEGSTVEKTVAPTECS scFv: DIVMTQSPDSLAVSLGERATINCKSSQSVLHSSNNKNYLTWFQQKPGQPPKLLIYWASTRESGVPDRFSGSGSGTDFTLTISSLQAEDVAVYYCHQYYSTPPTFGQGTKVEIKGGSEGKSSGSGSESKSTGGSQVQLQQSGPGLVKPSQTLSLTCAISGDSVSSNSAAWNWIRQSPSRGLEWLGRTYYRSKWYNDYAVSVKSRITINPDTSKNQISLQLNSVTPEDTAVYYCAGDRRYGIVGLPFAYWGQGTLVTVSSEPKSSDKTHTCPPCPAPEAAGGPSVFLFPPKPKDTLMISRTPEVTCVVVSVSHEDPEVKFNWYVDGVEVHNAKTKPREEQYNSTYRVVSVLTVLHQDWLNGKEYKCKVSNKALPAPIEKTISKAKGQPREPQVYVLPPSREEMTKNQVSLLCLVKGFYPSDIAVEWESNGQPENNYLTWPPVLDSDGSFFLYSKLTVDKSRWQQGNVFSCSVMHEALHNHYTQKSLSLSPG |  |  |  |  | 60 | 12 |  |  | 0.0565 |
| HC3B258 (bispecific antibody, human IgG1, lambda, L234A L235A, Differs from HC3B125 only by a codon for the C-terminal lysine K447, which is processed; also called CD3B376-Fab-Fc x MHGB732-LH-scFv-Fc (with K447 codon)) heavy: QVQLQQSGPRLVRPSQTLSLTCAISGDSVFNNNAAWSWIRQSPSRGLEWLGRTYYRSKWLYDYAVSVKSRITVNPDTSRNQFTLQLNSVTPEDTALYYCARGYSSSFDYWGQGTLVTVSSASTKGPSVFPLAPSSKSTSGGTAALGCLVKDYFPEPVTVSWNSGALTSGVHTFPAVLQSSGLYSLSSVVTVPSSSLGTQTYICNVNHKPSNTKVDKKVEPKSCDKTHTCPPCPAPEAAGGPSVFLFPPKPKDTLMISRTPEVTCVVVSVSHEDPEVKFNWYVDGVEVHNAKTKPREEQYNSTYRVVSVLTVLHQDWLNGKEYKCKVSNKALPAPIEKTISKAKGQPREPQVYVYPPSREEMTKNQVSLTCLVKGFYPSDIAVEWESNGQPENNYKTTPPVLDSDGSFALVSKLTVDKSRWQQGNVFSCSVMHEALHNHYTQKSLSLSPG light: QSALTQPASVSGSPGQSITISCTGTSSNIGTYKFVSWYQQHPDKAPKVLLYEVSKRPSGVSSRFSGSKSGNTASLTISGLQAEDQADYHCVSYAGSGTLLFGGGTKLTVLGQPKAAPSVTLFPPSSEELQANKATLVCLISDFYPGAVTVAWKADSSPVKAGVETTTPSKQSNNKYAASSYLSLTPEQWKSHRSYSCQVTHEGSTVEKTVAPTECS scFv: DIVMTQSPDSLAVSLGERATINCKSSQSVLHSSNNKNYLTWFQQKPGQPPKLLIYWASTRESGVPDRFSGSGSGTDFTLTISSLQAEDVAVYYCHQYYSTPPTFGQGTKVEIKGGSEGKSSGSGSESKSTGGSQVQLQQSGPGLVKPSQTLSLTCAISGDSVSSNSAAWNWIRQSPSRGLEWLGRTYYRSKWYNDYAVSVKSRITINPDTSKNQISLQLNSVTPEDTAVYYCAGDRRYGIVGLPFAYWGQGTLVTVSSEPKSSDKTHTCPPCPAPEAAGGPSVFLFPPKPKDTLMISRTPEVTCVVVSVSHEDPEVKFNWYVDGVEVHNAKTKPREEQYNSTYRVVSVLTVLHQDWLNGKEYKCKVSNKALPAPIEKTISKAKGQPREPQVYVLPPSREEMTKNQVSLLCLVKGFYPSDIAVEWESNGQPENNYLTWPPVLDSDGSFFLYSKLTVDKSRWQQGNVFSCSVMHEALHNHYTQKSLSLSPG |  |  |  |  | 60 | 11 |  |  |  |

Second part, led by results:

| % Binding retained 55° C. [1] [%] | % Binding retained 60° C. [1] [%] | % Binding retained 65° C. [1] [%] | Room temperature binding signal [2] | EC50 [3] [nM] | EC50 [5] [nM] | binding result [6] | Kd [7] [nM] | Binder | Cytotoxicity, EC50 (T cell-mediated, NCI-H2009-b2m target cells, 72 hr) [4] [nM] |
| --- | --- | --- | --- | --- | --- | --- | --- | --- | --- |
| 14 | 2 | 1 | 5.76e+06 |  |  |  |  | MHGB738 v-region as scFv (E. coli supernatant) (scFv, V domains shown, One scFv chain; also called MHGB738 (GL optimized B688)) VH: QVQLQQSGPGLVKPSQTLSLTCAISGDSVSSNRAAWNWIRQSPSRGLEWLGRTYYRSKWYNDYAVSVKSRITINPDTSKNQISLQLNSVTPEDTAVYYCARVRPGIPFDYWGQGTPVTVSS VL: not shown |  |
| 84 | 80 | 48 | 2.75e+06 |  |  |  |  | MHGB737 v-region as scFv (E. coli supernatant) (scFv, V domains shown, One scFv chain; also called MHGB737 (GL optimized B694)) VH: EVQLLESGGGLVQPGGSLRLSCAASGFTFSSYAMHWVRQAPGKGLEWVSGISGSGFSTYYVDSVKGRFTISRDNSKNTLYLQMNSLRAEDTAVYYCAKDNLVAGTVFDYWGQGTLVTVSS VL: not shown |  |
|  |  |  |  |  |  | binds | 0.033 | D3C3B80 (bispecific antibody, human IgG1, lambda, L234A L235A, also called C3C3B80) scFv: DIQMTQSPSSLSASVGDRVTITCRASQGISNYLAWFQQKPGKAPKSLIYAASSLQSGVPSKFSGSGSGTDFTLTISSLQPEDFATYYCQQYNSYPYTFGQGTKLEIKGGSEGKSSGSGSESKSTGGSQVQLVQSGAEVKKPGASVKVSCKASGQTFTNYYIHWVRQAPGQGLEWMGIINPSGGSTSYAQKLQGRMTMTRDTSTSTVYMELSSLRSEDTAVYFCARQGPFIGDAFDIWGQGTTVTVSSEPKSSDKTHTCPPCPAPEAAGGPSVFLFPPKPKDTLMISRTPEVTCVVVSVSHEDPEVKFNWYVDGVEVHNAKTKPREEQYNSTYRVVSVLTVLHQDWLNGKEYKCKVSNKALPAPIEKTISKAKGQPREPQVYVLPPSREEMTKNQVSLLCLVKGFYPSDIAVEWESNGQPENNYLTWPPVLDSDGSFFLYSKLTVDKSRWQQGNVFSCSVMHEALHNHYTQKSLSLSPGK heavy: QVQLQQSGPRLVRPSQTLSLTCAISGDSVFNNNAAWSWIRQSPSRGLEWLGRTYYRSKWLYDYAVSVKSRITVNPDTSRNQFTLQLNSVTPEDTALYYCARGYSSSFDYWGQGTLVTVSSASTKGPSVFPLAPSSKSTSGGTAALGCLVKDYFPEPVTVSWNSGALTSGVHTFPAVLQSSGLYSLSSVVTVPSSSLGTQTYICNVNHKPSNTKVDKKVEPKSCDKTHTCPPCPAPEAAGGPSVFLFPPKPKDTLMISRTPEVTCVVVSVSHEDPEVKFNWYVDGVEVHNAKTKPREEQYNSTYRVVSVLTVLHQDWLNGKEYKCKVSNKALPAPIEKTISKAKGQPREPQVYVYPPSREEMTKNQVSLTCLVKGFYPSDIAVEWESNGQPENNYKTTPPVLDSDGSFALVSKLTVDKSRWQQGNVFSCSVMHEALHNHYTQKSLSLSPGK light: QSALTQPASVSGSPGQSITISCTGTSSNIGTYKFVSWYQQHPDKAPKVLLYEVSKRPSGVSSRFSGSKSGNTASLTISGLQAEDQADYHCVSYAGSGTLLFGGGTKLTVLGQPKAAPSVTLFPPSSEELQANKATLVCLISDFYPGAVTVAWKADSSPVKAGVETTTPSKQSNNKYAASSYLSLTPEQWKSHRSYSCQVTHEGSTVEKTVAPTECS |  |
